# Data as given in PMC6599135, “Atomic view into Plasmodium actin polymerization, ATP hydrolysis, and fragmentation” (PLoS Biology, 2019).
# B1: Plasmodium falciparum actin I, wild type (natural protein)
# chain: not shown
# notes: Plasmodium falciparum actin I; His74 is not methylated in the recombinant protein; In the pyrene assay about 10% of the actin carried N-(1-pyrene)iodoacetamide; also called PfActI; P. falciparum actin I; source: insect cells, purified (Ni-NTA, TEV cleavage, second Ni-NTA, Superdex 200 gel filtration)
# Target: the molecule itself
# Assay: negative-stain electron microscopy of polymerised samples; polymerised 16 h at 298 K at 20 uM in F buffer without jasplakinolide, diluted to 1 uM, stained with 2% uranyl acetate
protein,measurement,value
B1,binding result,binds
